Assay results taken from patent US20220155321A1 (published 2022).
Residue numbers refer to the chain shown, from its start.

T1: peptide on HLA-A*01:01 (human)
T1 peptide: ASSLPTTMNY

B1: Reference F (TCR, V domains shown)
Valpha: QKEVEQNSGPLSVPEGAIASLNCTYSDRGSQSFFWYRQYSGKSPELIMFIYSNGDKEDGRFTAQLNKASQYVSLLIRDSQPSDSATYLCAVKDNNARLMFGDGTQLVVKP
Vbeta: KAGVTQTPRYLIKTRGQQVTLSCSPISGHRSVSWYQQTPGQGLQFLFEYFSETQRNKGNFPGRFSGRQFSNSRSEMNVSTLELGDSALYLCASSLSSGLYEQYFGPGTRLTVT
B2: Reference E (TCR, V domains shown)
Valpha: GQQVMQIPQYQHVQEGEDFTTYCNSSTTLSNIQWYKQRPGGHPVFLIQLVKSGEVKKQKRLTFQFGEAKKNSSLHITATQTTDVGTYFCAGQGNRDDKIIFGKGTRLHILP
Vbeta: DGGITQSPKYLFRKEGQNVTLSCEQNLNHDAMYWYRQDPGQGLRLIYYSQIVNDFQKGDIAEGYSVSREKKESFPLTVTSAQKNPTAFYLCASSLEWGPYEQYFGPGTRLTVT
B3: Reference H (TCR, V domains shown)
Valpha: GESVGLHLPTLSVQEGDNSIINCAYSNSASDYFIWYKQESGKGPQFIIDIRSNMDKRQGQRVTVLLNKTVKHLSLQIAATQPGDSAVYFCAENMGGAGKSTFGDGTTLTVKP
Vbeta: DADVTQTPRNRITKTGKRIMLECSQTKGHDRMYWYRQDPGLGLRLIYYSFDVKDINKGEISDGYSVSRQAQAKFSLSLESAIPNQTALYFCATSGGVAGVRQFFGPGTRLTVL
B4: Reference C (TCR, V domains shown)
Valpha: RKEVEQDPGPFNVPEGATVAFNCTYSNSASQSFFWYRQDCRKEPKLLMSVYSSGNEDGRFTAQLNRASQYISLLIRDSKLSDSATYLCVVPRMDSSYKLIFGSGTRLLVRP
Vbeta: KAGVTQTPRYLIKTRGQQVTLSCSPISGHRSVSWYQQTPGQGLQFLFEYFSETQRNKGNFPGRFSGRQFSNSRSEMNVSTLELGDSALYLCASSSTGARRSREQYFGPGTRLTVT
B5: Reference G (TCR, V domains shown)
Valpha: SQQGEEDPQALSIQEGENATMNCSYKTSINNLQWYRQNSGRGLVHLILIRSNEREKHSGRLRVTLDTSKKSSSLLITASRAADTASYFCATAVFNFGNEKLTFGTGTRLTIIP
Vbeta: B4 Vbeta with T96M, G97T, A98S, R99G, R100G, S101P, R102W

Molecular target: T1, peptide on HLA-A*01:01
Assay: multimer staining

Binder	binding result
B1	recognises
B2	recognises
B3	recognises
B4	recognises
B5	recognises
